Experimental data: paper PMC8563947 (Scientific Reports, 2021)
Values belong to the binder of their own block, whether it stands above or below them.

Assays:
[1] = target: T1, green fluorescent protein (Aequorea victoria (assumed; GFP variant …, UniProt P42212 = GFP); test: SPR; Biacore T-200, multicycle; 265-274 RU of recombinant GFP immobilised on CM5 chip; Nbs flowed in five dilutions; HBS-EP+ buffer, 25 °C, 30 μL/min; settings: both partners purified
T1 construct: green fluorescent protein (GFP, 27 kDa); the GFP construct may be there; also called GFP; recombinant GFP; source: E. coli BL21 (DE3), purified (Ni-NTA agarose)

[2] = target: T1, green fluorescent protein; test: as above; settings: both partners purified; remark: listed apart in the source

B1: anti-GFP mutant nanobody Y37A without peptide barcode (VHH)
VHH: QVQLVESGGALVQPGGSLRLSCAASGFPVNRYSMRWARQAPGKEREWVAGMSSAGDRSSYEDSVKGRFTISRDDARNTVYLQMNSLKPEDTAVYYCNVNVGFEYWGQGTQVTVSS
notes: as the VHH chain of m2 with the stated change; source: P. pastoris, purified (Ni-NTA agarose)
- Kd [1]: 16.4 nM
- koff [1]: 0.0759 s⁻¹
- kon [1]: 4.62e+06 M⁻¹ s⁻¹

B3: anti-GFP mutant nanobody E103A without peptide barcode (VHH)
VHH: QVQLVESGGALVQPGGSLRLSCAASGFPVNRYSMRWYRQAPGKEREWVAGMSSAGDRSSYEDSVKGRFTISRDDARNTVYLQMNSLKPEDTAVYYCNVNVGFAYWGQGTQVTVSS
notes: as for B1
- binding result [1]: no binding

B4: anti-GFP mutant nanobody R57A without peptide barcode (VHH)
VHH: QVQLVESGGALVQPGGSLRLSCAASGFPVNRYSMRWYRQAPGKEREWVAGMSSAGDASSYEDSVKGRFTISRDDARNTVYLQMNSLKPEDTAVYYCNVNVGFEYWGQGTQVTVSS
notes: as the VHH chain of m2 with the stated change; source: Pichia pastoris GS115, culture medium, purified (His SpinTrap)
- Kd [2]: 0.02 nM
- koff [2]: 6.72e-05 s⁻¹
- kon [2]: 3.42e+06 M⁻¹ s⁻¹

B5: anti-GFP mutant nanobody W47A without peptide barcode (VHH)
VHH: QVQLVESGGALVQPGGSLRLSCAASGFPVNRYSMRWYRQAPGKEREAVAGMSSAGDRSSYEDSVKGRFTISRDDARNTVYLQMNSLKPEDTAVYYCNVNVGFEYWGQGTQVTVSS
notes: as for B1
- Kd [1]: 0.722 nM
- koff [1]: 0.00606 s⁻¹
- kon [1]: 8.39e+06 M⁻¹ s⁻¹

B6: anti-GFP mutant nanobody F102A without peptide barcode (VHH)
VHH: QVQLVESGGALVQPGGSLRLSCAASGFPVNRYSMRWYRQAPGKEREWVAGMSSAGDRSSYEDSVKGRFTISRDDARNTVYLQMNSLKPEDTAVYYCNVNVGAEYWGQGTQVTVSS
notes: as for B4
- Kd [2]: 0.121 nM
- koff [2]: 0.000628 s⁻¹
- kon [2]: 5.2e+06 M⁻¹ s⁻¹

Continued, values first:

- binding result [1]: no binding
B2: anti-GFP mutant nanobody R35A without peptide barcode (VHH)
VHH: QVQLVESGGALVQPGGSLRLSCAASGFPVNRYSMAWYRQAPGKEREWVAGMSSAGDRSSYEDSVKGRFTISRDDARNTVYLQMNSLKPEDTAVYYCNVNVGFEYWGQGTQVTVSS
notes: as for B1

- binding result [1]: no binding
B7: anti-GFP mutant nanobody G50A without peptide barcode (VHH)
VHH: QVQLVESGGALVQPGGSLRLSCAASGFPVNRYSMRWYRQAPGKEREWVAAMSSAGDRSSYEDSVKGRFTISRDDARNTVYLQMNSLKPEDTAVYYCNVNVGFEYWGQGTQVTVSS
notes: as for B1
